According to a protein production outcome set (Wang et al. 2014):

Assay: label from the status in PepcDB records

Row | Sequence | protein production
1 | MLVWEELREKALNKIYHDKEIGYLDPDILGFLLAFYRNRNDVYTQSSCSGRITIVDAEMPWDRKNSTIIFKNHLRITEQDLEDVLSKNQVRRLWLIVQGPIIHIYAKNIETGWDILKIAREAGFKHSGILATNQKGVLVELRTGIRMVHLLRESNTERVDKDKIKTLVNVCNEVLARGKQKMNLLKDLLSSSSNNSMELGKNSKLKTPI | not failed
2 | MTQLQISLLLTATISLLHLVVATPYEAYPIGKQYPPVARVNESFTFQISNDTYKSSVDKTAQITYNCFDLPSWLSFDSSSRTFSGEPSSDLLSDANTTLYFNVILEGTDSADSTSLNNTYQFVVTNRPSISLSSDFNLLALLKNYGYTNGKNALKLDPNEVFNVTFDRSMFTNEESIVSYYGRSQLYNAPLPNWLFFDSGELKFTGTAPVINSAIAPETSYSFVIIATDIEGFSAVEVEFELVIGAHQLTTSIQNSLIINVTDTGNVSYDLPLNYVYLDDDPISSDKLGSINLLDAPDWVALDNATISGSVPDELLGKNSNPANFSVSIYDTYGDVIYFNFEVVSTTDLFAISSLPNINATRGEWFSYYFLPSQFTDYVNTNVSLEFTNSSQDHDWVKFQSSNLTLAGEVPKNFDKLSLGLKANQGSQSQELYFNIIGMDSKITHSNHSANATSTRSSHHSTSTSSYTSSTYTAKISSTSAAATSSAPAALPAANKTSSHNKKAVAIACGVAIPLGVILVALICFLIFWRRRRENPDDENLPHAISGPDLNNPANKPNQENATPLNNPFDDDASSYDDTSIARRLAALNTLKLDNHSATESDISSVDEKRDSLSGMNTYNDQFQSQSKEELLAKPPVQPPESPFFDPQNRSSSVYMDSEPAVNKSWRYTGNLSPVSDIVRDSYGSQKTVDTEKLFDLEAPEKEKRTSRDVTMSSLDPWNSNISPSPVRKSVTPSPYNVTKHRNRHLQNIQDSQSGKNGITPTTMSTSSSDDFVPVKDGENFCWVHSMEPDRRPSKKRLVDFSNKSNVNVGQVKDIHGRIPEML | failed
3 | MGRGYEVISTEVCPLCKGKGKSKSVDFMKISEKDIDSFLKNGAVCEKCKGKGSIEITRPCEACEGLGKIYTCKVCGARIHNPEDAEDEICSTCARSQHVYALDESCDLEHHHHHH | not failed
4 | MQQVFNVSVPVPDDVVIISKEEYLNLLSDNEQGKWWDIDNLQELLGIGRSKLINDILLNPDIKKEVDLSINPNGFIVYPKGKGSRYKILATKARKYFEDNFGSILLNS | failed
5 | MKERILQEIKTRVNRKSWELWFSSFDVKSIEGNKVVFSVGNLFIKEWLEKKYYSVLSKAVKVVLGNDATFEITYEAFEPHSSYSEPLVKKRAVLLTPLNPDYTFENFVVGPGNSFAYHAALEVAKHPGRYNPLFIYGGVGLGKTHLLQSIGNYVVQNEPDLRVMYITSEKFLNDLVDSMKEGKLNEFREKYRKKVDILLIDDVQFLIGKTGVQTELFHTFNELHDSGKQIVICSDREPQKLSEFQDRLVSRFQMGLVAKLEPPDEETRKSIARKMLEIEHGELPEEVLNFVAENVDDNLRRLRGAIIKLLVYKETTGKEVDLKEAILLLKDFIKPNRVKAMDPIDELIEIVAKVTGVPREEILSNSRNVKALTARRIGMYVAKNYLKSSLRTIAEKFNRSHPVVVDSVKKVKDSLLKGNKQLKALIDEVIGEISRRALSGLEHHHHHH | not failed
6 | MTSRFMLIFAAISGFIFVALGAFGAHVLSKTMGGVEMGWIQTGLEYQAFHTLAILGLAVAMQRRISIWFYWSSVFLALGTVLFSGSLYCLALSHLRLWAFVTPVGGVSFLAGWALMLVGAIRLKRKGVSHE | failed
7 | MRVFPVYAPKLIVKHARIFLTGVIWVKDLGRLEFEKGRFLLPRKSLPKVKQAILELNELIEAQNHQTKTALEHHHHHH | not failed
8 | QEIKRYADEHEERYGRFPKTLIFAVQDLANSSSHADQIVDQARDIFGRGDSFVQKITGKVDRPLQRIREFRNRKEPGIAVTVDLLSTGVDVPDIEYIVFLRSMKSRILFEQMIGRGTRKGEH | failed
9 | MSNALKSIDFRTNKSKDAVIVVELASPAAIVDVKRVQEGLSIDLMNTSVKDEQLYLLDVKDFATVVESVEVFRDTSTTRLVAYIDEEYTHDYRLTGRYLEITVSKLKPNEKVPDKSILEKEGKLISINFQDIPVRNVLQLIADYNQFNLVVSDSVEGNLTLRLDGVPWQQVLDIILQVKGLDKRVDGNVILVAPTDELDLREKQQLEKQKLTEEMGELSSEIIKVNFAKASDIAEMINGEGNISMLSERGSMTIDERTNSLLIRELPENIAVIREIIESLDIPVKQVQIEARIVTISEGNMDELGIRWGFTSINGNNTVGGSIENNLATIGLYEGGGDGEGEEGGVGIDDFLNVNLAATNPNAASIAFQVAKLGSDTLLDLELSALQQESKAEIISSPRLITTNKKPAYIEQGTEIPYLESSSSGATSVTFKKAVLSLKVTPQITPDNRLVLDLSVTQDRPGKVVKTGTGEAMAIDTQRIGTQVLVNNGETVVLGGIFQHSITNSVDKVPLLGDLPLLGALFRRSYENVGKSELLIFVTPKVVIQLEHHHHHH | not failed
10 | SAEASSANLGSGCEEKRHEGSSSESVPPGTTISRVKLLDTMVDTFLQKLVAAGSYQRFTDCYKCFYQLQPAMTQRIYDKFIAQLQTSIREEISDIKEEGNLEAVLNALDKIVEEGKVRKEPAWCEAQRCRVQQRCSLCVQAGGQRGSEETQALPVSMAGSPSPLPGSPGAQEGGV | failed
11 | MHHQSVLHSGYFHPLLRSWQTAASTVSASNLIYPIFVTDVPDDVQPIASLPGVARYGVNQLEEMLRPLVEAGLRCVLIFGVPSRVPKDEQGSAADSEDSPTIEAVRLLRKTFPSLLVACDVCLCPYTSHGHCGLLSENGAFLSEESRQRLAEVALAYAKAGCQVVAPSDMMDGRVEAIKAALLKHGLGNRVSVMSYSAKFASCFYGPFRDAAQSSPAFGDRRCYQLPPGARGLALRAVARDIQEGADMLMVKPGLPYLDMVREVKDKHPELPLAVYQVSGEFAMLWHGAQAGAFDLRTAVLETMTAFRRAGADIIITYFAPQLLKWLKEE | failed
12 | MPSPARTLLLAFVSAWFLLGGLGHFVFTDFFVGIVPPYVPWPLAAVWVSGVFELLGAAALLVPAWRRLAACGLFILTLCVTPANLYMWQHPDLFPSFPPTLLAARLALQAFLLGCILALMLARDEAPLARR | failed
13 | MFLGAAMAQVSLCMIVRDEAELLPRCLASVKDQVDELIVLDTGSRDRTPAIATEAGAKLLHTDWADDFSAARNQAIAAATGDWILVLDADEELILEAWTELRSQLDQPEALAFTVLREETQAGQVPYSRLSRLFRNRPDIRFQRPYHELVDDSLLALQQQEPNWRITAWPTPVIRHYGYGRDRLQQRGTAERMRQSLETWLADHPEDAYLCSKLGGLLVQEGDLKAAQRWLKQGLKQGRPEPAVRYELLYHLALLERRQGDLDAAIDRYQAALQEPVDAIHKLGAWVNLSHLYRDRGQLGLAYDAARQAVAAAPQATVALTALGLAARAIGNYPEAIAAYQQALQLDPNDPSLYQNLGAVLFQVGQLEASYAAFRQAIAGYEQQGSPEAQRLELRLQAMGIRL | failed
14 | EEDWVLPSEVEVLESIYLDELQVIKGNGRTSPWEIYITLHPATAEDQDSQYVCFTLVLQVPAEYPHEVPQISIRNPRGLSDEQIHTILQVLGHVAKAGLGTAMLYELIEKGKEILTDNNIPHGQ | not failed
15 | MADQLIEEVKQLIIDALRIEGMTPAEIDTDAPLFGEGLGLDSIDALQLVVAMEKQYGVVVPDAATGTKVFQSVRTVADFVAENRKLEHHHHHH | failed
16 | MAQKDRNTRIAQKAFEMVDKVYGKSPNLTTKPYDPKDESPSRFTQSAYKYGGPKIYTVREATSTYSYGRAIYMYAPESTIKEPVVSHPTEHIQYYGGTRPFVANPNRFERPKGRVINCDEAVQLYGGVLIKEFRK | failed
17 | RFKQNADHIVLTHVFNGGSAESAALCPQDKIIALDGYACTDFAAQWARYHVRAKINIHFFRAGILRQTVLTVQATAADTAI | failed
18 | MDFVIRRATAEEYDTLGEITAQAYLRDGLLDFGESDSYLDELRDVAKRAAAAEVLVAVADDAVLGGATFVPSGGPMADIARPGEAEIRMLAVAREARGRGAGEALVRACADRARAVPGCTGVVLSTQAAMRTAHRLYERLGFVRTPDRDWNPLPELDDIMLLTYELTL | failed
19 | MKNEPIYNLLNSINSPDDLRRLEVDQLPEVCDELRQDIIKELSCNPGHFAASLGTVELTVALHYVYNTPYDRIVWDVGHQAYGHKILTGRREAFSTNRKLGGIRPFPSPEESEYDTFTCGHASNSISAALGMAVAAAKKGDDQRHVIAIIGDGSMSGGLAFEGLNNSSTTPNNLLIILNDNDMAIDRSVGGMKQYLFNLTTSNRYNQLRFKASRLLFKLGILNDERRKALIRFGNSLKSMAAQQQNIFEGMNIRYFGPIDGHDIKNLSRVLRDIKDLKGPKILHLHTIKGKGFAPAEKHATEWHAPGKFDPVTGERFVANTEGMPPLFQDVFGNTLVELAEANPRIVGVTPAMPSGCSMNILMSKMPKRAFDVGIAEGHAVTFSGGMAKDGLQPFCNIYSSFMQRAYDNIIHDVAIQNLPVVLCLDRAGLVGEDGPTHHGAFDMAYLRPIPNLTIASPMNEHELRRLMYTAQLPDKGPFVLRYPRGRGVLVDWKCPLEEIPVGKGRKLKDGKDIAVISIGPIGNKARSAIARAESESGRSIAHYDLRFLKPLDEELLHEVGRTFRHIVTIEDGTIQGGMGSAVLEFMADHEYTPTVKRIGIPDKFVQHGTVAELYQLCGMDEDSLTKELLKQCELLPDMSKIKELTN | failed
20 | MSQLPAWPRITRESTAMYHLRVPQTEEELERYYQFRWEMLRKPLHQPKESERDGWDALAHHQIVVDEEGNLVAVGRLYINADNEASIRFMAVHPSVQDKGLGTLMAMTLESVARQEGVKRVTCSAREDAVEFFAKLGFVNQGEITTPTTTPIRHFLMIKPVASLDDILHRGDWCGQLQQAWYEHIPLSEKMGVRIQQYTGQKFITTMPETGNQNPHHTVFAGSLFSLATLTGWGLIWLMLRERHLGGTIILADAHIRYSKPISGKPNAVADLGSLSGDLDRLARGKKARVQLQVELLGGETAGAIFEGIYIVLPAKPFGPYEEGGNEEE | failed
21 | MPTLLMITPENLEIKRFRAYQLNNFMQLTMPYLAGFVPKEYDIRLLDEHTEPIIFEKFDLVAITVNTPNAPYAYAISKKFRELGSWVALGGPHVTLNPEEAALHCDTIFIGEAEETWPQFLNDFLCKKAQKVYTSSRAPSLAGLPIPRRDLIVGNRFISGAVFASRGCPHNCSYCSLKKIYHNTFRTRPVDEVIKDIASMPNKYFVFWDDNFFADPSYTKALLKDLAKLNKKWAAQVTAHSCEDEELLRLAKSAGCLYLFLGLESFSEQGLKDANKSFNKIEQYGKIADKLHRHGISIQAGIVFGFDSDTPDVFETTLKACNDIGIDGVTASILTPFPGTGIYDQYKNEGRLLDVGWNYYNGKTRVAYVPKQMSPEELLNGYNEFRRKFYSWKSIIKRICKSRVNIFYNLAMNYGYRQAYRNFAKLDIGDSKGMNIFEQLI | failed
22 | MQPGRSKAIPSRNASDKAYEPAVLLMRARVLHQQGQLDEARSAYKKVLKKAPDNFMALHFYALAEYQSGNAELGIKTLKRALLADPKSAQAQSDMGSMLIAVGRFADSLASCDKAIAIDPTLMLAYANRGLALSALARYEDAIASFDKAIELMPDRADTWNDRGNALHKLGRYTEALESYDKAIEIDPLSDVAFMNRAGTYKDLKQLDKALASYDRALSIGKRPVQAGLARAETLLFMRNVKDAMATCTAVLKVEPNSAIALTLLGNCMASLGDAETAIALHSRALELMPNYEAAISSKIFSMDFCAGSDVEAQQAVRSSWWTQIGAPIYRACATPPTNDRDPDRRLVVGYVSADFRAHSAAFSFRPVIEHHDHNQFEVVLYSGVVVPDDSTRAFEAIADKWRDATLMSDQGLADQIKEDKVDILVDLSGHSNGNRLRVFARKPAPVQVTAWGHATGTGLPVMDYLLGDPVAIPVEDRHFYAEAVYDLPSIVIIEPVPQQWRSLELPFDRNGYLTYGSLNRISKISDAAIEVWSQVLAASPTSRLILKDHQIDDPAVRQTLLEKFGARGIAAGRITLLGSSSRQDHLETLKQIDLCLDPFPQAGGVSTWEALHMGVPVVSRLGHTVPSRVGCAVLAAAGLPDFIAPNDARYIEIASKPELERLRSIRRGLRDFILQRCGPAAYTRAVEDAYRTMWKRWCAAPFDEAKDRALRRGR | failed
